Reference: patent US20220273713A1, “METHOD OF INHIBITING OR ACTIVATING GAMMA DELTA T CELLS” (The University of Melbourne, priority 2019, published 2022)
“And” between values parts separate entries of the source, which are not always exact repeats. Equal entries are not always repeated.

B1: Hu34C1: antagonist anti-BTN2A1 mAb; VH SEQ ID NO: 100, VL SEQ ID NO: 101; human IgG4 Fab, murine IgG2a Fc (antibody, V domains shown)
VH: EVQLLESGGGLVQPGGSLRLSCAASGFTFSHYPMIWVRQAPGKGLEWVSSISSSGGSTHYADSVKGRFTISRDNSKNTLYLQMNSLRAEDTAMYYCAALVSDTDFWGQGTLVTVSS
VL: DIQMTQSPATLSVSPGESTTLSCRASQSVTSNLAWYQQKPGQAPSLLIYGASTRATGIPARFSGSGSGTEFTLTISSLQSEDSAVYYCQQYNNWPRTFGQGTKVEIK
modifications: human IgG4 Fab, murine IgG2a Fc constant regions; amino acid sequence of Hu34C VH; amino acid sequence of Hu34C VL

Key:
Vγ9Vδ2 cells = assay: Luminex (Vγ9Vδ2): cytokine/chemokine secretion by pre-expanded Vγ9Vδ2 cells; format: cell-based, human; settings: for GMCSF / ICAM-1 / IFNγ / IL-4 / IL-8 / IL-13 / IL-17A / MIP-1a / MIP-1b / TNFα / sE-selectin / sP-Selectin: 16 hrs, antibodies 10 μg/ml, Zoledronic acid 4 μM, HMBPP 0.5 ng/ml, duplicates, 0 set to 0.1; for cytokine/chemokine secretion, in words: vs isotype (BM4);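 on all read-outs here: Vγ9Vδ2 cells purified from PBMC, activated 48 h with CD3 and CD28 plus IL-2, expanded 14 days in IL-2, then thawed and rested overnight in IL-2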
BTN2A1 B30.2 domain = BTN2A1 B30.2 domain (Homo sapiens, UniProt Q7KYR7); settings: ITC, 25° C., B30.2 domain 100 μM, pAg 2 mM
Description: ITC experiments were conducted on a MicroCal ITC200 instrument (GE Healthcare) at 25° C. […] Data were analysed with Microcal Origin software.

Vγ9^+ T cells = settings: cited from earlier work
[1] = system: Vδ2^+ γδ T cells among PBMCs; assay: γδ T cell functional assay: PBMC ± zoledronate ± anti-BTN2A1 mAb; format: cell-based, human; settings: PBMCs 24 h, 4 μM zoledronate, 10 μg/ml anti-BTN2A1 mAb, compared to isotype control mAb
Description: Fresh PBMC (2×10^6) were cultured in 24 well plates ±zoledronate (4 μM, Sigma) and purified mAb against BTN2A1, BTN3A1, or isotype control IgG1κ (MOPC-21, BioLegend) (10 μg/ml) After 24 h CD3ε^+ γδTCR^+ Vδ2^+/− γδ T cell activation was assessed by flow cytometry and cytokine production was determined by cytometric bead array according to manufacturer instructions (BD). For the assays in FIG. 14, PBMC were cultured in 24 well plates and blocked for 30 min with mAb against BTN2A1, BTN3A1, or isotype control (10 μg/ml). […] Cells were surface-stained and then fixed and permeabilized using Foxp3/Transcription Factor Staining Buffer Set (Invitrogen) according to the manufacturer's protocol followed by staining with anti-IFN-γ (Biolegend). For co-culture assays, purified and in vitro-expanded γδ T cells (5×10^5) were incubated in 96 well plates with APCs (3×10^5) for 24 h ±zoledronate (4 μM), and γδ T cell activation was determined by flow cytometry as above.

[2] = system: in vitro pre-expanded CD3+Vδ2+ γδ T cells; assay: HMBPP or anti-CD3/anti-CD28 activation of purified in vitro-expanded Vδ2+ T cells ± neutralizing anti-BTN2A1 mAb; format: cell-based, human; settings: HMBPP 0.5 ng/ml, 10 μg/ml neutralizing anti-BTN2A1 mAb, no APCs
Description: CD25 expression was determined by flow cytometry, and IFN-γ concentration was determined by cytometric bead array (BD Bioscience) as per manufacturer instructions.

[3] = γδT cells from patient 1 (melanoma patient)

Sequence of BTN2A1 B30.2 domain (Q7KYR7 310-506 limits assumed): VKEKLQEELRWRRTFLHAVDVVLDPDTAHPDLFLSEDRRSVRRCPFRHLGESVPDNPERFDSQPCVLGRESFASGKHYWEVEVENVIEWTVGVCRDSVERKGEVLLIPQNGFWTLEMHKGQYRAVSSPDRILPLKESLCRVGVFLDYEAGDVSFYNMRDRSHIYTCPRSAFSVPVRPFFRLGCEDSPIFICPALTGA

Molecule | ICAM-1 (Vγ9Vδ2 cells; γδT cells from a healthy donor) | IFNγ (Vγ9Vδ2 cells; γδT cells from a healthy donor) | IL-4 (Vγ9Vδ2 cells; γδT cells from a healthy donor) | IL-8 (Vγ9Vδ2 cells; γδT cells from a healthy donor) [pg/mL] | IL-13 (Vγ9Vδ2 cells; γδT cells from a healthy donor) | IL-17A (Vγ9Vδ2 cells; γδT cells from a healthy donor) | MIP-1a (Vγ9Vδ2 cells; γδT cells from a healthy donor) | MIP-1b (Vγ9Vδ2 cells; γδT cells from a healthy donor) | TNFα (Vγ9Vδ2 cells; γδT cells from a healthy donor) | sE-selectin (Vγ9Vδ2 cells; γδT cells from a healthy donor) | sP-Selectin (Vγ9Vδ2 cells; γδT cells from a healthy donor) | GMCSF (Vγ9Vδ2 cells; [3]) | ICAM-1 (Vγ9Vδ2 cells; [3]) | IFNγ (Vγ9Vδ2 cells; [3]) | IL-4 (Vγ9Vδ2 cells; [3]) | IL-13 (Vγ9Vδ2 cells; [3]) | IL-17A (Vγ9Vδ2 cells; [3]) | MIP-1a (Vγ9Vδ2 cells; [3]) | MIP-1b (Vγ9Vδ2 cells; [3]) | TNFα (Vγ9Vδ2 cells; [3]) | other results
CC(=CCOP(=O)(O)OP(=O)(O)O)CO [HMBPP, 4-hydroxy-3-methyl-but-2-enyl pyrophosphate, reference compound] | 575.02 pg/mL and 570.14 pg/mL | 751.87 pg/mL and 798.38 pg/mL | 137.56 pg/mL and 117.91 pg/mL | 0.1 | 84.37 pg/mL and 87.99 pg/mL | 8.39 pg/mL and 9.97 pg/mL | 395.47 pg/mL and 392.74 pg/mL | 19239.36 pg/mL and 20123.08 pg/mL | 2186.67 pg/mL and 2148.53 pg/mL | 387.87 pg/mL and 373.47 pg/mL | 3183.34 pg/mL and 3082.95 pg/mL | 2172.54 pg/mL and 2625.54 pg/mL | 729.5 pg/mL and 885.22 pg/mL | 723.16 pg/mL and 791.56 pg/mL | 875.51 pg/mL and 1027.45 pg/mL | 478.3 pg/mL and 602.86 pg/mL | 9.23 pg/mL and 10.85 pg/mL | 321.54 pg/mL and 383.73 pg/mL | 9453.77 pg/mL and 12721.52 pg/mL | 2973.1 pg/mL and 3657.48 pg/mL | GMCSF (Vγ9Vδ2 cells; γδT cells from a healthy donor): 2375.52 pg/mL and 2349.07 pg/mL; sE-selectin (Vγ9Vδ2 cells; [3]): 373.32 pg/mL and 372.16 pg/mL; sP-Selectin (Vγ9Vδ2 cells; [3]): 2542.23 pg/mL and 2775.99 pg/mL; binding of pAg to BTN2A1 B30.2 domain (BTN2A1 B30.2 domain): no clear interaction; sensitivity for HMBPP relative to IPP (Vγ9^+ T cells): ~1000 fold
B1 | 0.1 pg/mL | 0.1 pg/mL | 0.1 pg/mL | 0.1 | 0.1 pg/mL | 0.1 pg/mL | 9.16 pg/mL and 7.83 pg/mL | 50.62 pg/mL and 43.18 pg/mL | 0.1 pg/mL | 0.1 pg/mL | 0.1 pg/mL | 8.09 pg/mL and 9.22 pg/mL | 0.1 pg/mL | 0.1 pg/mL | 0.1 pg/mL | 16.14 pg/mL and 14.86 pg/mL | 0.1 pg/mL | 50.75 pg/mL and 51.38 pg/mL | 239.49 pg/mL and 252.05 pg/mL | 0.1 pg/mL | cytokine/chemokine secretion, in words (Vγ9Vδ2 cells; cancer patient derived Vγ9Vδ2 cells): reduction in levels of GMCSF, ICAM1 (to undetectable levels), IFNγ, IL-13, MIP1α and MIP1β as well as sE-selectin; cytokine/chemokine secretion, in words (Vγ9Vδ2 cells; healthy donor derived Vγ9Vδ2 cells): downregulation of MIP1α and b as well as GMCSF; IL-8 (Vγ9Vδ2 cells; [3]): 0.1 pg/mL; sP-Selectin (Vγ9Vδ2 cells; [3]): 0.1 pg/mL; indicators of TCR-dependent activation (CD25 induction, CD3 downregulation, IFN-γ and TNF production) [1]: significantly inhibited; HMBPP-induced activation (CD25 upregulation, IFN-γ production) [2]: failed to upregulate CD25 and produce IFN-γ
